The values below come from patent US8283439B2, “Recombinant fragments and synthetic peptides of 17-kDa polypeptide useful in detecting Bartonella henselae” (Medical Diagnostic Laboratories L.L.C., priority 2008, dated 2012).

“Also recorded” adds a separate entry of the source.

Experiment [1] deals with antibodies against Bartonella henselae in IFA sero-positive patient sera (IgG). The experiment can be described thus: IgG ELISA with recombinant 17-kDa protein or Fragment 3 as coating antigen. In kind it is binding, human. Conditions: for area under ROC curve (AUC): IgG ELISA, panel of 47 serum samples (27 IFA positive, 20 IFA negative), MedCalc ROC; for reaction with IFA negative serum samples: panel of 12 IFA positive and 6 IFA negative serum samples. On the procedure: In the ELISA assay, purified Fragment 3 protein was diluted in coating buffer to a final concentration of 250 ng/ml. Antigen was adhered to 96-well plate by applying 100 μl this solution per well and incubated at 4° C. for 18 hours. Uncoated antigen was removed by washing the plate three times with PBST wash buffer. After washing, post-coating was done with 300 μl blocking reagent General Blocker BB1 in each well for 1 hour at 22° C. Primary polyclonal antibody from 100 μl serum in 1:100 sample dilution buffer each well was allowed to react with coated antigen for 1 hour at 22° C. After five wash steps with PBST wash buffer, each well was incubated with […] peroxidase conjugated goat anti-human IgG (KPL, 1:20,000 from 1 mg/ml stock in sample dilute buffer) for 30 minutes at 22° C. The excess amount of secondary antibody was also removed by five wash steps with PBST wash buffer. The reaction were visualized by adding 100 μl substrate 3,3′5,5′-Tetramethylbenzidine solution and incubated at 22° C. for 15 minutes. The reaction was terminated by adding 100 μl 0.5 M H2SO4 per well before taking OD450nm measurement. Receiver operating characteristic curve (ROC) analysis was calculated with associated 95% confidence interval using a binomial distribution with the MedCalc program.
In this series of studies, a panel containing 12 IFA positive serum samples and 6 IFA negative serum samples was evaluated by ELISA using the respective antigen as the coating antigen. FIG. 15 presents the results of this ELISA analysis. […] Neither antigen bound antibody in sample #3508.
To further characterize the comparative abilities of recombinant Fragment 3 and the full length protein to bind antibodies to Bartonella henselae, a broader panel of 47 serum samples (27 IFA positive serum samples and 20 IFA negative serum samples) was analyzed by ELISA. The raw data was analyzed with ROC curve comparison in statistic software MedCalc.
A panel of 47 human sera was used in an IgG ELISA to evaluate the sensitivity and specificity for Fragment 3 mutants. The raw data was analyzed by interactive dot diagram assay (FIGS. 31 and 32).
Purified protein was diluted in coating buffer to a final concentration 250 ng/ml. Antigen was adhered to 96-well plate by applying 100 μl above prepared solution per well and incubate at 4° C. for 18 hours. We removed uncoated antigen by washing plate three times with PBST wash buffer. After washing, post-coating was done with 300 μl blocking reagent General Blocker BB1 each well for 1 hour at 22° C. Then primary polyclonal antibody from 100 μl serum in 1:100 sample dilution buffer each well was allowed to react with coated antigen for 1 hour at 22° C. After five times washing with PBST wash buffer, we incubated each well with 100 μl peroxidase conjugated goat anti-human IgG (KPL, 1:20,000 from 1 mg/ml stock in sample dilute buffer) for 30 minutes at 22° C. The excess amount of secondary antibody was also removed by five times washing with PBST wash buffer. The reaction were visualized by adding 100 μl substrate 3,3′5,5′-Tetramethylbenzidine Solution and incubated at 22° C. for 15 minutes. In the end, we terminated reaction with 100 μl 0.5 M H2SO4 per well before taking OD450nm measurement. Receiver operating characteristic curve (ROC) analysis was calculated with associated 95% confidence interval using a binomial distribution with MedCalc program.

In experiment [2] the test system is IgM in IFA-positive patient sera. The experiment can be described thus: IgM Capture ELISA with biotinylated recombinant 17-kDa full-length protein. Conditions: IFA-positive (n=13) and IFA-negative (n=34) patient samples. The experiment is classed as binding, human. The arrangement: AUC (ROC analysis of the calibrated slopes): unit not given beside the values. As for the experimental part:
For the IgM Capture assay, purified recombinant 17-kDa full-length protein (1 mg/ml) was biotinylated using the Sulfo-NHS Biotin kit (Pierce, Rockford Ill.). MaxiSorp 96 well plates (Nunc, Rochester N.Y.) were coated with anti-human IgM (KPL, Gaithersburg, Md.) at a concentration of 1 μg/ml in coating buffer (0.015 M Na2CO3, 0.035 M NaHCO3 [pH 9.6]) and incubated overnight at 4° C. The plates were washed with PBS-Tween 20 and blocked with 1% bovine serum albumin (BSA) at room temperature. IgM positive and negative patient sera were used. The sera were diluted 1:100 in 1% BSA with 0.05% Tween 20, prior to being run in duplicate, and reacted with the plates for 1 hr at room temperature.
Biotinylated recombinant 17-kDa protein was added to the plates at 1 μg/ml in dilution buffer and incubated at room temperature for 1 h with shaking. Streptavidin-HRP (Southern Biotech, Birmingham Ala.) was used to detect the plates followed by development with 3,3′,5,5′-Tetramethylbenzidine (TMB) (Moss, Pasadena, Md.) for 30 minutes. The reaction was stopped with 2M HCl and the absorbance at 450 nm was recorded after a period of 5-30 minutes.
Receiver operating characteristic (ROC) curve analysis was used to evaluate the performance of the IgM Capture method. ROC plots can be used to compare all tests, even when tests have quite different cutoff values. The study of area under the curve (AUC), which evaluates the probabilities of (1-Specificity) and Sensitivity, is an important statistical feature of such curves (i.e., for samples with Sensitivity=Specificity=100%, AUC would be 1.0).
Background: An ELISA detects its analyte on a solid surface through an enzyme-linked reagent.

B1: 17-kDa Fragment 3: His-tagged recombinant fragment of 17-kDa protein, aa 77-148, glutamine instead of arginine at position 147 (protein, listed as Bartonella henselae)
chain: KTKPEQLQALQIELTLLQAQLQADTLKIQSLAMIQAKDTKTKEELREEQTQKKHEDLQKQLKEKLEKSDVQL
modifications: His tag
On to B1, for which, in experiment [1], the “area under ROC curve (AUC)” value is recorded as 0.897 and the “reaction with IFA negative serum samples” value is reported as “Neither antigen reacted with any of the IFA negative serum samples”. Moreover, the “ability to bind antibodies in IgG ELISA” value in experiment [1] (coating antigen, IFA positive vs IFA negative sera) is given as “binds to antibodies against Bartonella henselae; also recorded: identical, if not better, ability to bind antibodies when compared with the full-length 17-kDa protein; also recorded: better sensitivity in detecting positive serum than the full length antigen”.

B2: 17-kDa Full Length: recombinant full-length 17-kDa (virB5) protein of Bartonella henselae strain Houston-1, aa 1-148; biotinylated in the IgM assay (protein, listed as Bartonella henselae)
chain: MKKYSLVTLLSLFCISHAKAQTATLTDEYYKKALENTQKLDVAKSQTAESIYESATQTANKIKDINNQLANLKADTKTKPEQLQALQIELTLLQAQLQADTLKIQSLAMIQAKDTKTKEELREEQTQKKHEDLQKQLKEKLEKSDVQL
modifications: biotinylated in IgM assay
notes: recombinant full-length 17-kDa (virB5) protein of Bartonella henselae strain Houston-1, aa 1-148; biotinylated in the IgM assay
Take B2: in experiment [1], the “area under ROC curve (AUC)” value was 0.853 and the “reaction with IFA negative serum samples” value was “Neither antigen reacted with any of the IFA negative serum samples”. For the same molecule, in experiment [2], the “AUC (ROC analysis of the calibrated slopes)” value was 0.998, the sensitivity amounted to 100% and the specificity is on record as 97.1%.
